Measured values: paper PMC3575409, “Identification of a Novel Protein-Protein Interaction Motif Mediating Interaction of GPCR-Associated Sorting Proteins with G Protein-Coupled Receptors” (PLoS ONE, 2013)

How the values were obtained:
GST-fused ADRB1 C-tail = experiment: GST-pull down, ADRB1 C-tail; format: binding; conditions: percent of full-length GASP-1 interaction; three independent experiments
Procedure, shortened: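 GST-C-tail (BL21, IPTG 1mM, 2 h/37°C) on glutathione-Sepharose 1 h 4°C; + [35S]-Met IVT GASP, 1 h 4°C, Tris-HCl pH 7.4, 150 mM NaCl, 1 mM EDTA, 1 mM DTT, 1% Triton; 5× washes; SDS-PAGE, phosphorimager readout.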

GST-fused M1 C-tail = experiment: GST-pull down, M1 C-tail; format: binding; conditions: percent of full-length GASP-1 interaction; three independent experiments
Procedure, shortened: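 GST-fused receptor C-tails (DOR residues 314–372, M1 414–460, H2 284–349, IGF1 1268–1367), expressed in E. coli BL21, immobilized on glutathione-Sepharose and incubated 1 h at 4 °C with [35S]-labelled in vitro translated GASP proteins in Tris-HCl pH 7.4 buffer with 150 mM NaCl and 1% Triton X-100. Bound GASPs resolved by SDS-PAGE and quantified by phosphorimaging; means of ≥3 experiments.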

B1: central domain of GASP-1: central portion of GASP-1 (AA 380 to 1073) that contains 19 GASP motif (protein)
chain: MTKEEAKTKARARAKQEARSEEEALIGTWFWATDESSMADEASIESSLQVEDESIIGSWFWTEEEASMGTGASSKSRPRTDGERIGDSLFGAREKTSMKTGAEATSESILAADDEQVIIGSWFWAGEEVNQEAEEETIFGSWFWVIDAASVESGVGVSCESRTRSEEEEVIGPWFWSGEQVDIEAGIGEEARPGAEEETIFGSWFWAENQTYMDCRAETSCDTMQGAEEEEPIIGSWFWTRVEACVEGDVNSKSSLEDKEEAMIPCFGAKEEVSMKHGTGVRCRFMAGAEETNNKSCFWAEKEPCMYPAGGGSWKSRPEEEEDIVNSWFWSRKYTKPEAIIGSWLWATEESNIDGTGEKAKLLTEEETIINSWFWKEDEAISEATDREESRPEAEEGDIIGSWFWAGEEDRLEPAAETREEDRLAAEKEGIVGSWFGAREETIRREAGSCSKSSPKAEEEEVIIGSWFWEEEASPEAVAGVGFESKPGTEEEEITVGSWFWPEEEASIQAGSQAVEEMESETEEETIFGSWFWDGKEVSEEAGPCCVSKPEDDEEMIVESWFWSRDKAIKETGTVATCESKPENEEGAIVGSWFEAEDEVDNRTDNGSNCGSRTLADEDEAIVGSWFWAGDEAHFESNPSPVFRAICRSTCSVEQEPDPSRRPQSWEEVTVQFKPGPWGRVGFPSISPFRFPKE
modifications: left off: GST, N-terminal, kept
notes: central portion of GASP-1 (AA 380 to 1073) that contains 19 GASP motif
interaction with ADRB1 C-tail relative to full-length GASP-1 (GST-fused ADRB1 C-tail): around 70% | interaction with M1 C-tail relative to full-length GASP-1 (GST-fused M1 C-tail): around 70%
